Results published in US20160263155A1, “T CELL RECEPTORS DIRECTED AGAINST THE PREFERENTIALLY EXPRESSED ANTIGEN OF MELANOMA AND USES THEREOF” (LEIDEN UNIVERSITY MEDICAL CENTER, priority 2015, published 2016).

Tested on: chimeric Caspase-9 polypeptide
Experiment: Caspase mutant classes and basal activity (Table 3)
Type: cell-based, human
Details: class heading of Table 3

chimeric Caspase-9 polypeptide, sequence (as listed by the source, change not shown): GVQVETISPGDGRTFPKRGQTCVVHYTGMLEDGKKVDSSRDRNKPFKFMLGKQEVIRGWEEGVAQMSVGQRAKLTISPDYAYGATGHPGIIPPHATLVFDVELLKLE

Row | Molecule | Basal Activity
1 | F406L (protein) GFGDVGALESLRGNADLAYILSMEPCGHCLIINNVNFCRESGLRTRTGSNIDCEKLRRRFSSLHFMVEVKGDLTAKKMVLALLELAQQDHGALDCCVVVILSHGCQASHLQFPGAVYGTDGCPVSVEKIVNIFNGTSCPSLGGKPKLFFIQACGGEQKDHGFEVASTSPEDESPGSNPEPDATPFQEGLRTFDQLDAISSLPTPSDIFVSYSTFPGFVSWRDPKSGSWYVETLDDIFEQWAHSEDLQSLLLRVANAVSVKGIYKQMPGCFNLLRKKLFFKTS | dead
2 | S144D (protein) GFGDVGALEDLRGNADLAYILSMEPCGHCLIINNVNFCRESGLRTRTGSNIDCEKLRRRFSSLHFMVEVKGDLTAKKMVLALLELAQQDHGALDCCVVVILSHGCQASHLQFPGAVYGTDGCPVSVEKIVNIFNGTSCPSLGGKPKLFFIQACGGEQKDHGFEVASTSPEDESPGSNPEPDATPFQEGLRTFDQLDAISSLPTPSDIFVSYSTFPGFVSWRDPKSGSWYVETLDDIFEQWAHSEDLQSLLLRVANAVSVKGIYKQMPGCFNFLRKKLFFKTS | Decreased
3 | C403P (protein) GFGDVGALESLRGNADLAYILSMEPCGHCLIINNVNFCRESGLRTRTGSNIDCEKLRRRFSSLHFMVEVKGDLTAKKMVLALLELAQQDHGALDCCVVVILSHGCQASHLQFPGAVYGTDGCPVSVEKIVNIFNGTSCPSLGGKPKLFFIQACGGEQKDHGFEVASTSPEDESPGSNPEPDATPFQEGLRTFDQLDAISSLPTPSDIFVSYSTFPGFVSWRDPKSGSWYVETLDDIFEQWAHSEDLQSLLLRVANAVSVKGIYKQMPGPFNFLRKKLFFKTS | dead
4 | T317S (protein) GFGDVGALESLRGNADLAYILSMEPCGHCLIINNVNFCRESGLRTRTGSNIDCEKLRRRFSSLHFMVEVKGDLTAKKMVLALLELAQQDHGALDCCVVVILSHGCQASHLQFPGAVYGTDGCPVSVEKIVNIFNGTSCPSLGGKPKLFFIQACGGEQKDHGFEVASTSPEDESPGSNPEPDASPFQEGLRTFDQLDAISSLPTPSDIFVSYSTFPGFVSWRDPKSGSWYVETLDDIFEQWAHSEDLQSLLLRVANAVSVKGIYKQMPGCFNFLRKKLFFKTS | Decreased
5 | G402Y (protein) GFGDVGALESLRGNADLAYILSMEPCGHCLIINNVNFCRESGLRTRTGSNIDCEKLRRRFSSLHFMVEVKGDLTAKKMVLALLELAQQDHGALDCCVVVILSHGCQASHLQFPGAVYGTDGCPVSVEKIVNIFNGTSCPSLGGKPKLFFIQACGGEQKDHGFEVASTSPEDESPGSNPEPDATPFQEGLRTFDQLDAISSLPTPSDIFVSYSTFPGFVSWRDPKSGSWYVETLDDIFEQWAHSEDLQSLLLRVANAVSVKGIYKQMPYCFNFLRKKLFFKTS | dead
6 | D330A-T317E (protein) GFGDVGALESLRGNADLAYILSMEPCGHCLIINNVNFCRESGLRTRTGSNIDCEKLRRRFSSLHFMVEVKGDLTAKKMVLALLELAQQDHGALDCCVVVILSHGCQASHLQFPGAVYGTDGCPVSVEKIVNIFNGTSCPSLGGKPKLFFIQACGGEQKDHGFEVASTSPEDESPGSNPEPDAEPFQEGLRTFDQLAAISSLPTPSDIFVSYSTFPGFVSWRDPKSGSWYVETLDDIFEQWAHSEDLQSLLLRVANAVSVKGIYKQMPGCFNFLRKKLFFKTS | dead
7 | S144A (protein) GFGDVGALEALRGNADLAYILSMEPCGHCLIINNVNFCRESGLRTRTGSNIDCEKLRRRFSSLHFMVEVKGDLTAKKMVLALLELAQQDHGALDCCVVVILSHGCQASHLQFPGAVYGTDGCPVSVEKIVNIFNGTSCPSLGGKPKLFFIQACGGEQKDHGFEVASTSPEDESPGSNPEPDATPFQEGLRTFDQLDAISSLPTPSDIFVSYSTFPGFVSWRDPKSGSWYVETLDDIFEQWAHSEDLQSLLLRVANAVSVKGIYKQMPGCFNFLRKKLFFKTS | Decreased
8 | G402I (protein) GFGDVGALESLRGNADLAYILSMEPCGHCLIINNVNFCRESGLRTRTGSNIDCEKLRRRFSSLHFMVEVKGDLTAKKMVLALLELAQQDHGALDCCVVVILSHGCQASHLQFPGAVYGTDGCPVSVEKIVNIFNGTSCPSLGGKPKLFFIQACGGEQKDHGFEVASTSPEDESPGSNPEPDATPFQEGLRTFDQLDAISSLPTPSDIFVSYSTFPGFVSWRDPKSGSWYVETLDDIFEQWAHSEDLQSLLLRVANAVSVKGIYKQMPICFNFLRKKLFFKTS | dead
9 | D315A-D330A (protein) GFGDVGALESLRGNADLAYILSMEPCGHCLIINNVNFCRESGLRTRTGSNIDCEKLRRRFSSLHFMVEVKGDLTAKKMVLALLELAQQDHGALDCCVVVILSHGCQASHLQFPGAVYGTDGCPVSVEKIVNIFNGTSCPSLGGKPKLFFIQACGGEQKDHGFEVASTSPEDESPGSNPEPAATPFQEGLRTFDQLAAISSLPTPSDIFVSYSTFPGFVSWRDPKSGSWYVETLDDIFEQWAHSEDLQSLLLRVANAVSVKGIYKQMPGCFNFLRKKLFFKTS | dead
10 | D330A-Y153A (protein) GFGDVGALESLRGNADLAAILSMEPCGHCLIINNVNFCRESGLRTRTGSNIDCEKLRRRFSSLHFMVEVKGDLTAKKMVLALLELAQQDHGALDCCVVVILSHGCQASHLQFPGAVYGTDGCPVSVEKIVNIFNGTSCPSLGGKPKLFFIQACGGEQKDHGFEVASTSPEDESPGSNPEPDATPFQEGLRTFDQLAAISSLPTPSDIFVSYSTFPGFVSWRDPKSGSWYVETLDDIFEQWAHSEDLQSLLLRVANAVSVKGIYKQMPGCFNFLRKKLFFKTS | dead
11 | G402A (protein) GFGDVGALESLRGNADLAYILSMEPCGHCLIINNVNFCRESGLRTRTGSNIDCEKLRRRFSSLHFMVEVKGDLTAKKMVLALLELAQQDHGALDCCVVVILSHGCQASHLQFPGAVYGTDGCPVSVEKIVNIFNGTSCPSLGGKPKLFFIQACGGEQKDHGFEVASTSPEDESPGSNPEPDATPFQEGLRTFDQLDAISSLPTPSDIFVSYSTFPGFVSWRDPKSGSWYVETLDDIFEQWAHSEDLQSLLLRVANAVSVKGIYKQMPACFNFLRKKLFFKTS | dead
12 | D330A-Y153F (protein) GFGDVGALESLRGNADLAFILSMEPCGHCLIINNVNFCRESGLRTRTGSNIDCEKLRRRFSSLHFMVEVKGDLTAKKMVLALLELAQQDHGALDCCVVVILSHGCQASHLQFPGAVYGTDGCPVSVEKIVNIFNGTSCPSLGGKPKLFFIQACGGEQKDHGFEVASTSPEDESPGSNPEPDATPFQEGLRTFDQLAAISSLPTPSDIFVSYSTFPGFVSWRDPKSGSWYVETLDDIFEQWAHSEDLQSLLLRVANAVSVKGIYKQMPGCFNFLRKKLFFKTS | dead
13 | G402Q (protein) GFGDVGALESLRGNADLAYILSMEPCGHCLIINNVNFCRESGLRTRTGSNIDCEKLRRRFSSLHFMVEVKGDLTAKKMVLALLELAQQDHGALDCCVVVILSHGCQASHLQFPGAVYGTDGCPVSVEKIVNIFNGTSCPSLGGKPKLFFIQACGGEQKDHGFEVASTSPEDESPGSNPEPDATPFQEGLRTFDQLDAISSLPTPSDIFVSYSTFPGFVSWRDPKSGSWYVETLDDIFEQWAHSEDLQSLLLRVANAVSVKGIYKQMPQCFNFLRKKLFFKTS | dead
14 | ^402GCFNF^406YCSTL: Caspase-9 homodimerization domain mutant (SEQ ID NOS 95 and 100) (Casp-2) (protein, UniProt P55211 1-416, looked up, variant G402Y F404S N405T F406L) MDEADRRLLRRCRLRLVEELQVDQLWDALLSRELFRPHMIEDIQRAGSGSRRDQARQLIIDLETRGSQALPLFISCLEDTGQDMLASFLRTNRQAAKLSKPTLENLTPVVLRPEIRKPEVLRPETPRPVDIGSGGFGDVGALESLRGNADLAYILSMEPCGHCLIINNVNFCRESGLRTRTGSNIDCEKLRRRFSSLHFMVEVKGDLTAKKMVLALLELAQQDHGALDCCVVVILSHGCQASHLQFPGAVYGTDGCPVSVEKIVNIFNGTSCPSLGGKPKLFFIQACGGEQKDHGFEVASTSPEDESPGSNPEPDATPFQEGLRTFDQLDAISSLPTPSDIFVSYSTFPGFVSWRDPKSGSWYVETLDDIFEQWAHSEDLQSLLLRVANAVSVKGIYKQMPYCSTLLRKKLFFKTS | dead
15 | ^402GCFNF^406CIVSM: Caspase-9 homodimerization domain mutant (SEQ ID NOS 95 and 101) (Casp-3) (protein, UniProt P55211 1-416, looked up, variant G402C C403I F404V N405S F406M) MDEADRRLLRRCRLRLVEELQVDQLWDALLSRELFRPHMIEDIQRAGSGSRRDQARQLIIDLETRGSQALPLFISCLEDTGQDMLASFLRTNRQAAKLSKPTLENLTPVVLRPEIRKPEVLRPETPRPVDIGSGGFGDVGALESLRGNADLAYILSMEPCGHCLIINNVNFCRESGLRTRTGSNIDCEKLRRRFSSLHFMVEVKGDLTAKKMVLALLELAQQDHGALDCCVVVILSHGCQASHLQFPGAVYGTDGCPVSVEKIVNIFNGTSCPSLGGKPKLFFIQACGGEQKDHGFEVASTSPEDESPGSNPEPDATPFQEGLRTFDQLDAISSLPTPSDIFVSYSTFPGFVSWRDPKSGSWYVETLDDIFEQWAHSEDLQSLLLRVANAVSVKGIYKQMPCIVSMLRKKLFFKTS | dead
16 | ^402GCFNF^406QPTFT: Caspase-9 homodimerization domain mutant (SEQ ID NOS 95 and 102) (Casp-8) (protein, UniProt P55211 1-416, looked up, variant G402Q C403P F404T N405F F406T) MDEADRRLLRRCRLRLVEELQVDQLWDALLSRELFRPHMIEDIQRAGSGSRRDQARQLIIDLETRGSQALPLFISCLEDTGQDMLASFLRTNRQAAKLSKPTLENLTPVVLRPEIRKPEVLRPETPRPVDIGSGGFGDVGALESLRGNADLAYILSMEPCGHCLIINNVNFCRESGLRTRTGSNIDCEKLRRRFSSLHFMVEVKGDLTAKKMVLALLELAQQDHGALDCCVVVILSHGCQASHLQFPGAVYGTDGCPVSVEKIVNIFNGTSCPSLGGKPKLFFIQACGGEQKDHGFEVASTSPEDESPGSNPEPDATPFQEGLRTFDQLDAISSLPTPSDIFVSYSTFPGFVSWRDPKSGSWYVETLDDIFEQWAHSEDLQSLLLRVANAVSVKGIYKQMPQPTFTLRKKLFFKTS | dead
